This note sets out measurements from the nanobody polyreactivity screen of Harvey et al. (2022).

The nature of this series: yeast display, Sf9 membrane polyspecificity reagent, FACS + sequencing; frameworks hold sequencing errors. The essentials: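 Nanobodies from a synthetic yeast display library (Saccharomyces cerevisiae BJ5465), induced 36–48 hours with galactose, were stained 1 hour at 4 °C with 10% biotinylated, detergent-solubilized Sf9 membrane reagent, enriched on streptavidin microbeads, then FACS-sorted. Anti-HA (expression) and streptavidin (reagent binding) fluorescence set low and high (top ~1%) gates. Polyreactivity labels come from the gate of origin. Genes were colony-PCR amplified, MiSeq 2 × 250 sequenced and filtered by CDR length.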
As for “QVQLVESGGGLVQAGGSLRLSCAASGIIFYENAMGWYRQAPGKERELVAAIDGDDGGTDYADSVKGRFTISRDNAKNTVYLQMNSLKPEDTAVYYCAADFGAETGYYYWGQGTQVTVSS”, the “polyreactivity (PSR sort gate)” value was “low polyreactivity”. For the sequence “QVQLVESGGGLVQAGGSLRLSCAASGIIFYEYVMGWYRPAPGKERELVAAINRSGGSTYYADSVKGRFTISRDNAKNTVYLQMNSLKPEDTAVYYCAASSTYDGRKYYYWGQGTQVNVSS”, the “polyreactivity (PSR sort gate)” value is “high polyreactivity”. With “QVQLVESGGGLVQAGGSLRLSCAASGIIFYEYVMGWYRQAPGKEREVVATISSIGGATYYADSVKGRFTISRDNAKNTVYLQMNSLKPEDTAVDYCAADPEPVVARGGNWYGDDDWGQGTQVTVSS” the entry was “high polyreactivity”. On to “QVQLVESGGGLVQAGGSLRLSCAASGIIFYFYAMGWYRQAPGKERELVATITWSGTSTNYADSVKGRFTISRDNAKNTVYLQMNSLKPEDTAVYYCAARWPTGRNGYWGQGTQVTVSS”, for which the “polyreactivity (PSR sort gate)” value is listed as “high polyreactivity”. In the case of “QVQLVESGGGLVQAGGSLRLSCAASGIIFYGYAMGWYRQAPGKERDLVAAISSGGGTNYADSVKGRFTISRDNAKNTVYLQMNSLIPEDTAVYYCASRQYRRVKQGNYWGQGTQVTVSS”, the “polyreactivity (PSR sort gate)” value is given as “high polyreactivity”. Turning to “QVQLVESGGGLVQAGGSLRLSCAASGIIFYGYAMGWYRQAPGKERELVAAITYSGGSTYYADSVKGRFTISRDNAKNTVYLQMNSLKPEDTAVYYCAAYDAYSPYQALYDYWGQGTQVTVSS”, the “polyreactivity (PSR sort gate)” value was “low polyreactivity”.

In the case of “QVQLVESGGGLVQAGGSLRLSCAASGIIFYKYAMGWYRQAPGKERELVAVISSGGSTYYADSVKGRFTISRDNAKNTVYLQMNSLKPEYNAVYYCNADCYRRGYDYWGKGTQVTVSS”, the “polyreactivity (PSR sort gate)” value was “high polyreactivity”. Consider “QVQLVESGGGLVQAGGSLRLSCAASGIIFYLYAMGWYRQAPGKERELVAAISGSGGNTYYADSVKGRFTISRDNAKNTVYLQMNSLKPEDTAVYYCAVAVFVWYAVIPYAEYDYWGQGTQVTVSS”, for which the “polyreactivity (PSR sort gate)” value is recorded as “high polyreactivity”. For “QVQLVESGGGLVQAGGSLRLSCAASGIIFYPYAMGWYSLAPGKERELVAAISQSGGTTSYADSVKGRFTISRDNAKNTVYLQMNSLKPEDTAVYYCARRVSTRKRYYYWGQGTQVTVSS”, the “polyreactivity (PSR sort gate)” value is given as “high polyreactivity”. With “QVQLVESGGGLVQAGGSLRLSCAASGIIFYRNARGWYRQAPGKERELVAAISSRGGNTYYADSVKGRFTISRDNAKNTVYLQMNSLQPEDTAVYYCARDSYSLSRTYDSWGQGTQVTLSS” the entry was “high polyreactivity”; with “QVQLVESGGGLVQAGGSLRLSCAASGIIFYRYAMGWYRQAPGKEWELVAAITRRGGSTYYADSVKGRFTISRDNAKNTVYLQMNSLKPEDTGVYYCNARVRYTSADPSYYSWGQGTQVTVSS”, “high polyreactivity”; with “QVQLVESGGGLVQAGGSLRLSCAASGIIFYRYTMGWYRQAPGKERELVAAITSGGDTNYADSVKGRFTISRDNAKNTVYLQMNSLKPEDTAVYYCNADCWWYLYLYDFWGQGTQVTVSS”, “high polyreactivity”.

With “QVQLVESGGGLVQAGGSLRLSCAASGIIFYSYAMGWYRQAPGKERELVAAISRSSGRTYYADSVKGRFTISRDNAKNTVYLQMNSLKPEDTAVYYCATDYYYYPWEYDYWGQGTQVTVSS”, the “polyreactivity (PSR sort gate)” value is “high polyreactivity”. As for “QVQLVESGGGLVQAGGSLRLSCAASGIIFYTNAMGWYRQAPGKEREFVAAINTSGGITYYADSVKGRFTISRDNATNTVYLQMNSLKPEDTAVYYCAKDRRYRPPYGYEIEYAYWGQGTQVTVAS”, the “polyreactivity (PSR sort gate)” value is recorded as “low polyreactivity”.

Regarding “QVQLVESGGGLVQAGGSLRLSCAASGIIFYVYALGWYRQAPGKERELVAAISYTSSTYADSVKGLFTISRDNAKNTVYLQMNSLKPEDTAVYYCNTDYSDGYPAFDFWGQGTQVTVSS”, the “polyreactivity (PSR sort gate)” value is reported as “low polyreactivity”. “QVQLVESGGGLVQAGGSLRLSCAASGIIFYVYAMGWYRQAPGKERELVATITRRDDSTYYADSVKGRFTISRDNAKNTVYLQMNSLKPEDTAVSYCNADFWLLSEYDYWGQGTQVTVSS”: the “polyreactivity (PSR sort gate)” value is recorded as “low polyreactivity”. “QVQLVESGGGLVQAGGSLRLSCAASGIIFYYNAMGWYRPAPGNERELVAAISGRGGSTYYADSVKGRVTISRDNAKNTVYLQMTSLKPEDTAVYYCAAARVGSRYGYDYWGQGTQGTVSS”: the “polyreactivity (PSR sort gate)” value was “low polyreactivity”. Consider “QVQLVESGGGLVQAGGSLRLSCAASGIIFYYNAMGWYRQAPGKERELVASIRWRGGSTYYADSVKGRFTISRDNAKNTVYLQMNSLKPEDTAVYYCNVVKYVYIYSYWEYYYWGQGTQVTVSS”, for which the “polyreactivity (PSR sort gate)” value is “low polyreactivity”.

With “QVQLVESGGGLVQAGGSLRLSCAASGIIFYYYAKGWYRQSPGKERELVAAISSSGGRTRYADSVKGRFTISRDNAKNTVFLQMNSLKPEDSAVYYCAAEFIRGYGESYDYWGQGTQVTVSS”, the “polyreactivity (PSR sort gate)” value is on record as “low polyreactivity”. Turning to “QVQLVESGGGLVQAGGSLRLSCAASGIIFYYYAMGWYRQAPGKERELVAAIRSGGSTNYADSVKGRFTISRDNAKNTVYLQMNSLKPEDTAVYYCATRHDYLRAHYGYGSWGQGTQVTVSS”, the “polyreactivity (PSR sort gate)” value was “low polyreactivity”. In the case of “QVQLVESGGGLVQAGGSLRLSCAASGIIFYYYAMGWYRQAPGKERELVAAISTSGGRTYYADSVKGRFTISRDNAKSTVYLQMNSLKPEDTAVYYCAKDFWYVTGGWSSGLDYWGQGTQVTVSS”, the “polyreactivity (PSR sort gate)” value was “low polyreactivity”. Consider “QVQLVESGGGLVQAGGSLRLSCAASGIIFYYYGMGWYRQAPGKEREFVAAISTSGGNTYYADSVKGRFTISRDNAKNTVYLQMNSLKPEDTAVYYCAADDLAWGDAGVDYWGQGTEVTVSS”, for which the “polyreactivity (PSR sort gate)” value is reported as “low polyreactivity”. With “QVQLVESGGGLVQAGGSLRLSCAASGIIFYYYGMGWYRQAPGKEREFVAAISTSGGNTYYADSVKGRFTISRDNAKNTVYLQMNSLKPEDTAVYYCAADDWPWGDAGVDYWGQGTQVTVSS”, the “polyreactivity (PSR sort gate)” value is “low polyreactivity”. As for “QVQLVESGGGLVQAGGSLRLSCAASGIIIGANAMGWYRQAPWKERELLAAITSGGSTYYADSVKGRFTISRDNAKNTVYLQMNSLKPEDTAVYYCAADVFWLYSFTIYDYWGQGTQVTVSS”, the “polyreactivity (PSR sort gate)” value was “high polyreactivity”. As to “QVQLVESGGGLVQAGGSLRLSCAASGIIIGNNAMGWYRQAPGKERELVAAISRRGGSTYYADSVKGRFTISRDNAKNTVYLQMNSLKPEDTAVYYCAADIYRYNSYDYWGQGTQVTVSS”, the “polyreactivity (PSR sort gate)” value is on record as “low polyreactivity”. Turning to “QVQLVESGGGLVQAGGSLRLSCAASGIIIVYNVMGWYRQAPGKERELVAAITNGDSTNYADSVKGRFTISRDNAKNTVYLQMNSLKPEDTAVYYCNVEGGYPLKYDYWGQGTQVSVSS”, the “polyreactivity (PSR sort gate)” value was “low polyreactivity”. Take “QVQLVESGGGLVQAGGSLRLSCAASGIIIWGNAMAWYRQAPGKERELVAAISSSSGSTYYADSVKGRFTISRDNAKNTVYLQMNRLKPVDTAVYYCAVDTPRSYRAQGAYYYWGQGTQVTVSS”: the “polyreactivity (PSR sort gate)” value was “low polyreactivity”.

Turning to “QVQLVESGGGLVQAGGSLRLSCAASGIIIWYNTMGWYRQAPGKEREFVARISRRVGSTYYADSVKGRFTISRDNAKNTVYLQMNSLKPEDTAVYYCAASPYQVRYQWGNRLDYWGQGTQVTVSS”, the “polyreactivity (PSR sort gate)” value is reported as “high polyreactivity”. For the sequence “QVQLVESGGGLVQAGGSLRLSCAASGIIIYYNTMGWYRQAPGKEREFVDAISNSGGRTYYADSVKGRFTISRDNAKNTVYLQMNSLKPEDTADYYCAATYRQYSRSPWYYYCGQGTQVTVSS”, the “polyreactivity (PSR sort gate)” value is “high polyreactivity”. Turning to “QVQLVESGGGLVQAGGSLRLSCAASGIILDEYAMGVYSQAPGKERELVAAITWIGGSTYADSVKGRFTISRDNAKNTVYLQMNRLKPEDTAVYYCAADYPSLFVCYGYGWYNYDYWGQGTQVTVSS”, the “polyreactivity (PSR sort gate)” value was “low polyreactivity”. For “QVQLVESGGGLVQAGGSLRLSCAASGIILGDYAMGWYRQAPGKERELVAAITSTGGRTYYADSVKGRFTISRDNAKNTVYLQMNSLKPEDTAVYYCAAQGSYRRYRPYYYWGQGTQVTVSS”, the “polyreactivity (PSR sort gate)” value was “high polyreactivity”. “QVQLVESGGGLVQAGGSLRLSCAASGIILGVYAMGWYRQAPGKEREFVAAITSSGGSTYYADSVKGRFTISRDNAKNTVYLQMNSLKPEDTAVYYCAADFDTSVRLYGPTRYDYWGQGTQVTVSS”: the “polyreactivity (PSR sort gate)” value is reported as “low polyreactivity”. Consider “QVQLVESGGGLVQAGGSLRLSCAASGIILNYYAMGWYRQAPGKERELVAAISSGGTTYYADSVKGRFTISRDNAKNTVYLQMNSLKPEDTAVYYCNADYLYSRGGDWRWWDMDYWGQGTQVTVSS”, for which the “polyreactivity (PSR sort gate)” value is “low polyreactivity”. As to “QVQLVESGGGLVQAGGSLRLSCAASGIILPYYAMGWYRQAPGKEREFVATISSDGTSTYYADSVKGRFTISRDNAKNTVYLQMNSLKPEDTAVYDCAARIRQNPGGDNSWGQGTQVTVSS”, the “polyreactivity (PSR sort gate)” value is listed as “low polyreactivity”. Take “QVQLVESGGGLVQAGGSLRLSCAASGIILRRYAMGWYRQAPGKERELVAAISSRGGSTYYADSVKGRFTISRDNAKNTVYLQMNSLKPEDTAVYYCANRPYGRSGGSRYDYWGQGTQVTVSS”: the “polyreactivity (PSR sort gate)” value is given as “high polyreactivity”.

With “QVQLVESGGGLVQAGGSLRLSCAASGIILRYYAMGWYRQAPGKERELVAAISGSGTRTYYADSVKGRFTISRDNAKNTVYLQMNSLKPEDTAVYYCAALVWGGYDYWGQGTQVTVSS”, the “polyreactivity (PSR sort gate)” value is reported as “high polyreactivity”. Take “QVQLVESGGGLVQAGGSLRLSCAASGIILYGYAMGWYRQAPGKERELVAAISRRGGITYYADSVKGRFTISRDNAKNTVYLQMNSLKPEDTAVYYCAADWYGYRQFHGYYWGQGTQVTVSS”: the “polyreactivity (PSR sort gate)” value is “high polyreactivity”. Turning to “QVQLVESGGGLVQAGGSLRLSCAASGIILYPYAMGWYRQAPGKERELVAAISWSGGSTYYADSVKGRFTISRDNAKNTVYLQMNSLKPEDTAVYYCAARPRRRYYGYDSWGQGTQVTVSS”, the “polyreactivity (PSR sort gate)” value was “high polyreactivity”. As to “QVQLVESGGGLVQAGGSLRLSCAASGIILYRYAMGWYRPAPGKERELVAAISRSGGNTYYADSVKGRFTISRDNAKNTVYLQMNSLKPEDTAVYYCAAKPLQGVRRVEYWGQGTQVTVSS”, the “polyreactivity (PSR sort gate)” value is reported as “high polyreactivity”. In the case of “QVQLVESGGGLVQAGGSLRLSCAASGIILYYYAMGRYRPAPGKERELVASISRGDSTNYADSVKGRFTISRDNAKNTVYLQMNSLIPEDTAVYCNKDYLPSLYRGFDYWGQGTQVTVSS”, the “polyreactivity (PSR sort gate)” value was “low polyreactivity”.

As for “QVQLVESGGGLVQAGGSLRLSCAASGIILYYYAMGWYRQAPGKERELVAAISSGGNTYYADSVKGRFTISRDNAKNTVYLQMTSLKPEDTAVYYCAAVTVIGGEYDYWGQGTQVTVSS”, the “polyreactivity (PSR sort gate)” value was “low polyreactivity”.
